Experimental data reported in article PMC9352680, “A comprehensive thermodynamic model for RNA binding by the Saccharomyces cerevisiae Pumilio protein PUF4”.

T1: PUF4 RNA-binding domain (Saccharomyces cerevisiae, UniProt P25339 537-888)
T1 sequence: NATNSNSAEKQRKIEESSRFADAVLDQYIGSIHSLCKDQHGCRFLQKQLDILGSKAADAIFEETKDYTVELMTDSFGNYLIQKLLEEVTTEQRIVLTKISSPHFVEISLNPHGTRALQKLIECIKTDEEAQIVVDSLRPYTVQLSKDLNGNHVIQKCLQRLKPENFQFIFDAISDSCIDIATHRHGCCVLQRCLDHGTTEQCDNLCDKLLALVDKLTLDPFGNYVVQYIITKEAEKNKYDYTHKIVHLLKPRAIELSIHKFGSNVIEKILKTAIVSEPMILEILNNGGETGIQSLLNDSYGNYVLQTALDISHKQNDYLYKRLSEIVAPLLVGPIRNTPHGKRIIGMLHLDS


target: T1, PUF4 RNA-binding domain; experiment: Mg; RNA-MaP; 20 mM Na-HEPES pH 7.4, 30 mM KOAc, 0.75 mM MgCl2, 0.1% Tween-20, 5% glycerol, 0.1 mg/mL BSA, 2 mM DTT; 25 C; 0.0125-409.6 nM protein; settings: tags: N-His6-TEV cleaved; C-SNAP kept, Cy3B-labelled; label: tethered on chip by stalled RNA polymerase

Binder	Kd [nM]
UCUCUUUGUAUCCAGUCUCUU (ssRNA) [Ic_S1_P4E.1_K4.1_C4.1_H4.1_A4.1_[A6C]_[T7C]_F4.1_[T8A]_[A9G]_T4.1]	2020
UCUCUUUGUAUCAACUCUCUU (ssRNA) [Ic_S1_P4E.1_K4.1_C4.1_H4.1_A4.1_[A6C]_[T7A]_F4.1_[T8A]_[A9C]_T4.1]	508
UCUCUUUGUAUCUAGUCUCUU (ssRNA) [Ic_S1_P4E.1_K4.1_C4.1_H4.1_A4.1_[A6C]_F4.1_[T8A]_[A9G]_T4.1]	43.8
UCUCUUUGUAUUUAUCUCUU (ssRNA) [Ia_S1_P3E.1_K3.1_C3.1_H3.1_A3.1_[A6T]_F3.1_T3.1]	36.2
UCUCUUUGUAUUCCAUCUCUU (ssRNA) [Ic_S1_P4E.1_K4.1_C4.1_H4.1_A4.1_[A6T]_[T7C]_F4.1_[T8C]_T4.1]	454
UCUCUUUGUAUCCGUUCUCUU (ssRNA) [Ic_S1_P4E.1_K4.1_C4.1_H4.1_A4.1_[A6C]_[T7C]_F4.1_[T8G]_[A9T]_T4.1]	1300
UCUCUUUGUAUCAAUUCUCUU (ssRNA) [Ic_S1_P4E.1_K4.1_C4.1_H4.1_A4.1_[A6C]_[T7A]_F4.1_[T8A]_[A9T]_T4.1]	91.5
UCUCUUUGUAUUGGUUCUCUU (ssRNA) [Ic_S1_P4E.1_K4.1_C4.1_H4.1_A4.1_[A6T]_[T7G]_F4.1_[T8G]_[A9T]_T4.1]	500
UCUCUUUGUAUCGUGUCUCUU (ssRNA) [Ic_S1_P4E.1_K4.1_C4.1_H4.1_A4.1_[A6C]_[T7G]_F4.1_[A9G]_T4.1]	432
UCUCUUUGUAUCCAUUCUCUU (ssRNA) [Ic_S1_P4E.1_K4.1_C4.1_H4.1_A4.1_[A6C]_[T7C]_F4.1_[T8A]_[A9T]_T4.1]	362
UCUCUUUGUAUUGCAUCUCUU (ssRNA) [Ic_S1_P4E.1_K4.1_C4.1_H4.1_A4.1_[A6T]_[T7G]_F4.1_[T8C]_T4.1]	365
UCUCUUUGUACAUGUCUCUU (ssRNA) [Ic_S1_P3E.1_K3.1_C3.1_H3.1_A3.1_[T5C]_F3.1_[A8G]_T3.1]	21.8
UCUCUUUGUAUCGUUUCUCUU (ssRNA) [Ic_S1_P4E.1_K4.1_C4.1_H4.1_A4.1_[A6C]_[T7G]_F4.1_[A9T]_T4.1]	328
UCUCUUUGUAUCCUUUCUCUU (ssRNA) [Ic_S1_P4E.1_K4.1_C4.1_H4.1_A4.1_[A6C]_[T7C]_F4.1_[A9T]_T4.1]	44.9
UCUCUUUGUAUCUCGUCUCUU (ssRNA) [Ic_S1_P4E.1_K4.1_C4.1_H4.1_A4.1_[A6C]_F4.1_[T8C]_[A9G]_T4.1]	382
UCUCUUUGUAUCGCUUCUCUU (ssRNA) [Ic_S1_P4E.1_K4.1_C4.1_H4.1_A4.1_[A6C]_[T7G]_F4.1_[T8C]_[A9T]_T4.1]	682
UCUCUUUGUAUUAAUUCUCUU (ssRNA) [Ic_S1_P4E.1_K4.1_C4.1_H4.1_A4.1_[A6T]_[T7A]_F4.1_[T8A]_[A9T]_T4.1]	86.5
UCUCUUUGUAUCAGUUCUCUU (ssRNA) [Ic_S1_P4E.1_K4.1_C4.1_H4.1_A4.1_[A6C]_[T7A]_F4.1_[T8G]_[A9T]_T4.1]	316
UCUCUUUGUAUUGUUUCUCUU (ssRNA) [Ic_S1_P4E.1_K4.1_C4.1_H4.1_A4.1_[A6T]_[T7G]_F4.1_[A9T]_T4.1]	33.6
UCUCUUUGUAUUCUCUCUCUU (ssRNA) [Ic_S1_P4E.1_K4.1_C4.1_H4.1_A4.1_[A6T]_[T7C]_F4.1_[A9C]_T4.1]	38.5
UCUCUUUGUAUUAUCUCUCUU (ssRNA) [Ic_S1_P4E.1_K4.1_C4.1_H4.1_A4.1_[A6T]_[T7A]_F4.1_[A9C]_T4.1]	19.3
UCUCUUUGUAUCACCUCUCUU (ssRNA) [Ic_S1_P4E.1_K4.1_C4.1_H4.1_A4.1_[A6C]_[T7A]_F4.1_[T8C]_[A9C]_T4.1]	432

Binder	Kd [nM]
UCUCUUUGUAUUCAGUCUCUU (ssRNA) [Ic_S1_P4E.1_K4.1_C4.1_H4.1_A4.1_[A6T]_[T7C]_F4.1_[T8A]_[A9G]_T4.1]	642
UCUCUUUGUAUCCUGUCUCUU (ssRNA) [Ic_S1_P4E.1_K4.1_C4.1_H4.1_A4.1_[A6C]_[T7C]_F4.1_[A9G]_T4.1]	82.6
UCUCUUUGUAUUCAUCUCUU (ssRNA) [Ib_S1_P3E.1_K3.1_C3.1_H3.1_A3.1_[A6T]_F3.1_[T7C]_T3.1]	296
UCUCUUUGUAUUACCUCUCUU (ssRNA) [Ic_S1_P4E.1_K4.1_C4.1_H4.1_A4.1_[A6T]_[T7A]_F4.1_[T8C]_[A9C]_T4.1]	511
UCUCUUUGUAUCAUGUCUCUU (ssRNA) [Ic_S1_P4E.1_K4.1_C4.1_H4.1_A4.1_[A6C]_[T7A]_F4.1_[A9G]_T4.1]	8.82
UCUCUUUGUAUUCGGUCUCUU (ssRNA) [Ic_S1_P4E.1_K4.1_C4.1_H4.1_A4.1_[A6T]_[T7C]_F4.1_[T8G]_[A9G]_T4.1]	> 2300
UCUCUUUGUAUUGCUUCUCUU (ssRNA) [Ic_S1_P4E.1_K4.1_C4.1_H4.1_A4.1_[A6T]_[T7G]_F4.1_[T8C]_[A9T]_T4.1]	443
UCUCUUUGUAUUCGCUCUCUU (ssRNA) [Ic_S1_P4E.1_K4.1_C4.1_H4.1_A4.1_[A6T]_[T7C]_F4.1_[T8G]_[A9C]_T4.1]	1060
UCUCUUUGUAUUGCGUCUCUU (ssRNA) [Ic_S1_P4E.1_K4.1_C4.1_H4.1_A4.1_[A6T]_[T7G]_F4.1_[T8C]_[A9G]_T4.1]	926
UCUCUUUGUAUCUACUCUCUU (ssRNA) [Ic_S1_P4E.1_K4.1_C4.1_H4.1_A4.1_[A6C]_F4.1_[T8A]_[A9C]_T4.1]	28.9
UCUCUUUGUAUUGUGUCUCUU (ssRNA) [Ic_S1_P4E.1_K4.1_C4.1_H4.1_A4.1_[A6T]_[T7G]_F4.1_[A9G]_T4.1]	40.2
UCUCUUUGUAUCCAAUCUCUU (ssRNA) [Ic_S1_P4E.1_K4.1_C4.1_H4.1_A4.1_[A6C]_[T7C]_F4.1_[T8A]_T4.1]	1050
UCUCUUUGUAUCCCAUCUCUU (ssRNA) [Ic_S1_P4E.1_K4.1_C4.1_H4.1_A4.1_[A6C]_[T7C]_F4.1_[T8C]_T4.1]	709
UCUCUUUGUAUCAUCUCUCUU (ssRNA) [Ic_S1_P4E.1_K4.1_C4.1_H4.1_A4.1_[A6C]_[T7A]_F4.1_[A9C]_T4.1]	17.6
UCUCUUUGUAUUAUUUCUCUU (ssRNA) [Ic_S1_P4E.1_K4.1_C4.1_H4.1_A4.1_[A6T]_[T7A]_F4.1_[A9T]_T4.1]	12.6
UCUCUUUGUAUUCUUUCUCUU (ssRNA) [Ic_S1_P4E.1_K4.1_C4.1_H4.1_A4.1_[A6T]_[T7C]_F4.1_[A9T]_T4.1]	27.1
UCUCUUUGUAUCGAUUCUCUU (ssRNA) [Ic_S1_P4E.1_K4.1_C4.1_H4.1_A4.1_[A6C]_[T7G]_F4.1_[T8A]_[A9T]_T4.1]	581
UCUCUUUGUAUCUGUUCUCUU (ssRNA) [Ic_S1_P4E.1_K4.1_C4.1_H4.1_A4.1_[A6C]_F4.1_[T8G]_[A9T]_T4.1]	58.6
UCUCUUUGUAUCCCCUCUCUU (ssRNA) [Ic_S1_P4E.1_K4.1_C4.1_H4.1_A4.1_[A6C]_[T7C]_F4.1_[T8C]_[A9C]_T4.1]	1020
UCUCUUUGUAUUAGCUCUCUU (ssRNA) [Ic_S1_P4E.1_K4.1_C4.1_H4.1_A4.1_[A6T]_[T7A]_F4.1_[T8G]_[A9C]_T4.1]	530
UCUCUUUGUAUUCCUUCUCUU (ssRNA) [Ic_S1_P4E.1_K4.1_C4.1_H4.1_A4.1_[A6T]_[T7C]_F4.1_[T8C]_[A9T]_T4.1]	114
UCUCUUUGUAUUAGUUCUCUU (ssRNA) [Ic_S1_P4E.1_K4.1_C4.1_H4.1_A4.1_[A6T]_[T7A]_F4.1_[T8G]_[A9T]_T4.1]	431

Binder	Kd [nM]
UCUCUUUGUAUUCCCUCUCUU (ssRNA) [Ic_S1_P4E.1_K4.1_C4.1_H4.1_A4.1_[A6T]_[T7C]_F4.1_[T8C]_[A9C]_T4.1]	505
UCUCUUUGUAUCCUCUCUCUU (ssRNA) [Ic_S1_P4E.1_K4.1_C4.1_H4.1_A4.1_[A6C]_[T7C]_F4.1_[A9C]_T4.1]	67.2
UCUCUUUGUAUUACUUCUCUU (ssRNA) [Ic_S1_P4E.1_K4.1_C4.1_H4.1_A4.1_[A6T]_[T7A]_F4.1_[T8C]_[A9T]_T4.1]	49.6
UCUCUUUGUAUUGGCUCUCUU (ssRNA) [Ic_S1_P4E.1_K4.1_C4.1_H4.1_A4.1_[A6T]_[T7G]_F4.1_[T8G]_[A9C]_T4.1]	1330
UCUCUUUGUAUCAGCUCUCUU (ssRNA) [Ic_S1_P4E.1_K4.1_C4.1_H4.1_A4.1_[A6C]_[T7A]_F4.1_[T8G]_[A9C]_T4.1]	606
UCUCUUUGUAUCCCGUCUCUU (ssRNA) [Ic_S1_P4E.1_K4.1_C4.1_H4.1_A4.1_[A6C]_[T7C]_F4.1_[T8C]_[A9G]_T4.1]	> 2300
UCUCUUUGUAUCAAUCUCUU (ssRNA) [Ic_S1_P3E.1_K3.1_C3.1_H3.1_A3.1_[A6C]_F3.1_[T7A]_T3.1]	108
UCUCUUUGUAUUCGAUCUCUU (ssRNA) [Ic_S1_P4E.1_K4.1_C4.1_H4.1_A4.1_[A6T]_[T7C]_F4.1_[T8G]_T4.1]	753
UCUCUUUGUAUCCACUCUCUU (ssRNA) [Ic_S1_P4E.1_K4.1_C4.1_H4.1_A4.1_[A6C]_[T7C]_F4.1_[T8A]_[A9C]_T4.1]	981
UCUCUUUGUAUUAAUCUCUU (ssRNA) [Ib_S1_P3E.1_K3.1_C3.1_H3.1_A3.1_[A6T]_F3.1_[T7A]_T3.1]	312
UCUCUUUGUAUUAAAUCUCUU (ssRNA) [Ic_S1_P4E.1_K4.1_C4.1_H4.1_A4.1_[A6T]_[T7A]_F4.1_[T8A]_T4.1]	95.4
UCUCUUUGUAUCUCUUCUCUU (ssRNA) [Ic_S1_P4E.1_K4.1_C4.1_H4.1_A4.1_[A6C]_F4.1_[T8C]_[A9T]_T4.1]	522
UCUCUUUGUAUGCAUCUCUU (ssRNA) [Ic_S1_P3E.1_K3.1_C3.1_H3.1_A3.1_[A6G]_F3.1_[T7C]_T3.1]	1280
UCUCUUUGUAUUCAUUCUCUU (ssRNA) [Ic_S1_P4E.1_K4.1_C4.1_H4.1_A4.1_[A6T]_[T7C]_F4.1_[T8A]_[A9T]_T4.1]	141
UCUCUUUGUAUUACGUCUCUU (ssRNA) [Ic_S1_P4E.1_K4.1_C4.1_H4.1_A4.1_[A6T]_[T7A]_F4.1_[T8C]_[A9G]_T4.1]	844
UCUCUUUGUAUCGACUCUCUU (ssRNA) [Ic_S1_P4E.1_K4.1_C4.1_H4.1_A4.1_[A6C]_[T7G]_F4.1_[T8A]_[A9C]_T4.1]	> 2300
UCUCUUUGUAUUAUGUCUCUU (ssRNA) [Ic_S1_P4E.1_K4.1_C4.1_H4.1_A4.1_[A6T]_[T7A]_F4.1_[A9G]_T4.1]	10.8
UCUCUUUGUAUCACAUCUCUU (ssRNA) [Ic_S1_P4E.1_K4.1_C4.1_H4.1_A4.1_[A6C]_[T7A]_F4.1_[T8C]_T4.1]	74.8
UCUCUUUGUAUUGCCUCUCUU (ssRNA) [Ic_S1_P4E.1_K4.1_C4.1_H4.1_A4.1_[A6T]_[T7G]_F4.1_[T8C]_[A9C]_T4.1]	943
UCUCUUUGUAUUUGGUCUCUU (ssRNA) [Ic_S1_P4E.1_K4.1_C4.1_H4.1_A4.1_[A6T]_F4.1_[T8G]_[A9G]_T4.1]	630
UCUCUUUGUAUCAUUUCUCUU (ssRNA) [Ic_S1_P4E.1_K4.1_C4.1_H4.1_A4.1_[A6C]_[T7A]_F4.1_[A9T]_T4.1]	11.2
